From patent publication US20260042849A1, “PROTEASE-CLEAVABLE MOIETIES AND METHODS OF USE THEREOF” (CytomX Therapeutics, Inc., priority 2022, published 2026) come the findings set out here.

Several values for one entry are separate records, joined by “and”; a condition that tells them apart may be missing. Identical values can stand only once. Ends that are not written are not given here.

The target in data set [1] is T1, MMP2 (Homo sapiens, UniProt P08253).
T1 sequence (P08253 110-660): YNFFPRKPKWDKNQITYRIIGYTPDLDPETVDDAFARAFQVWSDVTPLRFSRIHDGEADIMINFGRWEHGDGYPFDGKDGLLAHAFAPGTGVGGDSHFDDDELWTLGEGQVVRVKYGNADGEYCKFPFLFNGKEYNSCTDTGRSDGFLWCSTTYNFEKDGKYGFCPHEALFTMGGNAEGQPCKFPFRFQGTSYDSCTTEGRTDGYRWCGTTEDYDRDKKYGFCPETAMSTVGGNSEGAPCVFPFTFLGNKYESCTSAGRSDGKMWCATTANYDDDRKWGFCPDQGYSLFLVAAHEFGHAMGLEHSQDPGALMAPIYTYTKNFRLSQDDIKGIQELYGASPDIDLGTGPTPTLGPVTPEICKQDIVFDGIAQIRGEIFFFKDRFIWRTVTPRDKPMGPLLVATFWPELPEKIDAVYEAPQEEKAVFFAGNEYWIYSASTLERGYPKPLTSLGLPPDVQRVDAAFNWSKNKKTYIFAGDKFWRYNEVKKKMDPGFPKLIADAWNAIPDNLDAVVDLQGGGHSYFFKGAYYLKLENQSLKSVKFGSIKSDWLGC
Nature of the data set: In vitro cleavability of activatable antibodies, capillary electrophoresis. Particulars: 500 nM activatable antibody, 10 nM protease, 4 hours at 37° C. Further details: purchased R&D Systems 902-MP. In kind it is biochemical.

For data set [2], the target named is T2, MMP9 (Homo sapiens, UniProt P14780). The description is as above. In kind it is biochemical. Further details: purchased R&D Systems 911-MP; key to Cleavability (%) 4h MMP9: “—” indicates below limit of quantification. Particulars: 500 nM activatable antibody, 10 nM protease, 4 hours at 37° C.
T2 sequence (P14780 107-707 limits assumed): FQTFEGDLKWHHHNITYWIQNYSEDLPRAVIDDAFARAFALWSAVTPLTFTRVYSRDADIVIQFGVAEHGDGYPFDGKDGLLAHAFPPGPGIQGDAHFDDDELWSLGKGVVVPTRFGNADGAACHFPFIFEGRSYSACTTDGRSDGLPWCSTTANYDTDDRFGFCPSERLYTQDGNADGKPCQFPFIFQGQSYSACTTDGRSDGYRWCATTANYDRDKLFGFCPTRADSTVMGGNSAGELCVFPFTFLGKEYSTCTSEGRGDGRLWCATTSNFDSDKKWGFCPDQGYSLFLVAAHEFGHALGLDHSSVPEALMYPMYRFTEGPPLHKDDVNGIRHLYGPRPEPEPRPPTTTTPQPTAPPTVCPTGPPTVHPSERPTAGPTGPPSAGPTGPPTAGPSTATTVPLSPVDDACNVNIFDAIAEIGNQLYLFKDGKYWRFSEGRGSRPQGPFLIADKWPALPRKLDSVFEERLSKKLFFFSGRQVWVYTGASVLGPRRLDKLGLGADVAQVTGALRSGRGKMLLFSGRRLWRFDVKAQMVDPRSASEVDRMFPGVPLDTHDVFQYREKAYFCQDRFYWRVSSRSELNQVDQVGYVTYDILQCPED
The target of data set [3] is T3, MMP14 (Homo sapiens, UniProt P50281). Described as above. The data set is classed as biochemical. Further details: key to Cleavability (%) 4h MMP14: “—” indicates below limit of quantification. Particulars: for Cleavability (%) 4h MMP14: 500 nM activatable antibody, 10 nM protease, 4 hours at 37° C.
Data set [4] addresses T3, MMP14. Briefly: Internally quenched peptide probe cleavage assay (Example 8). The data set is classed as biochemical. The note with it: 20 μM peptide probe, 20 nM protease, 37° C. The source says: (§1) The study provided herein evaluated the cleavability kinetics (i.e., pM/s and kcat/KM (M^−1 s^−1) of CMs with matriptase (MT-SP1) and matrix metalloprotease (MMP) 2 (MMP2), MMP9, and MMP14. The CMs listed in Table 10 below were presented in an internally quenched peptide probe format, rather than included in an activatable antibody format. In the internally quenched probes, the CM sequence was positioned between a 7-methoxycoumarin-4-acetyl (MCA) fluorophore and a 2,4-dinitrophenyl (DNP) quencher such that cleavage of the CM sequence produced a fluorescence signal. The probes were of the following designs: (MCA)-Gly-Ser-X1-X2-Pro-X3-Gly-Leu-X4-X5-Gly-Ser-Lys (DNP)-D-Arg (SEQ ID NO: 178) where X1 is Arg or is absent, X2 is Ser or is absent, X3 is Met or Trp, X4 is Lys, Arg, or is absent, and X5 is Ser or is absent; (MCA)-Ser-X1-Pro-X2-Gly-Leu-X3-X4-Gly-Ser-Lys (DNP)-D-Arg (SEQ ID NO: 179) where X1 is Ala, X2 is Met, X3 is Lys, and X4 is His; and (MCA)-Gly-Ser-Pro-X1-Gly-Leu-X2-Gly-Gly-Ser-Lys (DNP)-D-Arg (SEQ ID NO: 180) where X1 is Met and X2 is Lys, as indicated in Table 10. The cleavage rates (pM/s) were measured using 20 μM internally quenched peptide probe and 20 nM MT-SP1, MMP2, MMP9, or MMP14. Cleavability kinetics (i.e., pM/s and kcat/KM (M^−1 s^−1)) were measured at 37° C. in 96- or 384-well plate format in the following buffers: 50 mM TRIS-HCl (pH 7.4), 150 mM NaCl, 0.05% Tween 20 for MT-SP1, 50 mM Tris-HCl (pH 7.5), 10 mM CaCl2, 150 mM NaCl, 0.05% (w/v) Brij-35 for MMP2 and MMP9, and 50 mM HEPES (pH 6.8), 10 mM CaCl2), 0.5 mM MgCl2, 0.05% (w/v) Brij-35 for MMP14. Cleavability kinetics were determined on an Infinite 200 PRO (Tecan) multimode plate reader using a fluorescence excitation wavelength of 320 nm and an emission wavelength of 405 nm.

For data set [5], the target named is T1, MMP2. The data set is described as above. In kind it is biochemical. The note with it: 20 μM peptide probe, 20 nM protease, 37° C.
Excerpt: as §1

Data set [6] addresses T4, MT-SP1 (Homo sapiens, UniProt Q9Y5Y6).
T4 sequence (Q9Y5Y6 615-855 limits assumed): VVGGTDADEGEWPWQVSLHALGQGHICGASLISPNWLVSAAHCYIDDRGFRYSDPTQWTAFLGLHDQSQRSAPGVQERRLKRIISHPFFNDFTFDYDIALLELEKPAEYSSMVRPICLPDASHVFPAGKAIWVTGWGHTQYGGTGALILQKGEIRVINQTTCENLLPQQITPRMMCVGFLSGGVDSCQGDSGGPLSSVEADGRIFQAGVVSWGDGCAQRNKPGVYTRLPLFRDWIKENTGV
The description is as above. In kind it is biochemical. The note with it: 20 μM peptide probe, 20 nM protease, 37° C.
Excerpt: as §1

In data set [7] the target is T2, MMP9. Described as above. The data set is classed as biochemical. Particulars: 20 μM peptide probe, 20 nM protease, 37° C.
Excerpt: as §1

The target of data set [8] is recombinant EGFR (Homo sapiens, UniProt P00533). Nature of the data set: Solid-phase binding assay (ELISA) of anti-EGFR activatable antibodies. The note with it: compared to activatable antibodies with control CM 2001. A general note: In an ELISA, binding on a coated surface is turned into a signal by an enzyme label.
For data set [9] the following is noted: mouse.
Data set [10] concerns the target T4, MT-SP1. Briefly: In vitro cleavability of activatable antibodies, capillary electrophoresis. The data set is classed as biochemical. Further details: purchased R&D Systems 3946-SEB. The note with it: 500 nM activatable antibody, 10 nM protease, 4 hours at 37° C. As to the method:
The studies provided herein evaluate the in vitro cleavability of activatable antibodies containing exemplary CMs that include a substrate cleavable by a matrix metalloprotease (MMP) and/or a substrate cleavable by a matriptase (MT-SP1).
Each activatable antibody (500 nM) was incubated with 10 nM of the indicated single protease for 4 hours at 37° C. Human recombinant proteases were purchased from R&D Systems: MT-SP1 (catalog No: 3946-SEB), MMP2 (catalog No: 902-MP), MMP9 (catalog No: 911-MP), and MMP14 (catalog No: 918-MP). […] Protease concentrations were determined by active site titration. Activity assays were performed in the following buffers: 50 mM TRIS-HCl (pH 7.4), 150 mM NaCl, 0.05% Tween 20 for MT-SP1, 50 mM Tris-HCl, 10 mM CaCl2), 150 mM NaCl, 0.05% (w/v) Brij-35, pH 7.5 for MMP2 and MMP9, and 50 mM HEPES (pH 6.8), 10 mM CaCl2), 0.5 mM MgCl2 for MMP14. Following incubation, the presence of cleavage product was determined by capillary electrophoresis for each protease enzyme using a LabChip GXII Touch system (Perkin Elmer) with the HT Protein Express 100 protocol (Perkin Elmer). LabChip GXII Touch HT Chips (Perkin Elmer #760499) were set up using the protocol of the Protein Express Assay Reagent Kit (Perkin Elmer #CLS960008).

Turning to GPYGLL [CM 7048], the “Cleavability (%) 4h MMP2” value in [1] is 96.1%. In data set [2], the “Cleavability (%) 4h MMP9” value turned out to be 98.3%. In addition, the “Cleavability (%) 4h MMP14” value in [3] is 66.3%.
As for “PWGLRS [tested as internally quenched peptide probe]”, the “Probe Cleavage (pM/s) MMP14” value in data set [4] is recorded as 4380 pM/s. Besides, in data set [5], the “Probe Cleavage (pM/s) MMP2” value is 3800 pM/s. Also, the “Probe Cleavage (pM/s) MT-SP1” value in [6] is on record as 1230 pM/s. Further, the “Probe Cleavage (pM/s) MMP9” value in data set [7] stood at 3830 pM/s.
For the substance “PYGL [CM 7047, also tested as internally quenched peptide probe]”, in [1], the “Cleavability (%) 4h MMP2” value is listed as 27.5%. In addition, the “Cleavability (%) 4h MMP9” value in data set [2] was 19.2%. Also, the “Cleavability (%) 4h MMP14” value in data set [3] is “—”.
On to “PMGLK (also: internally quenched fluorophore/quencher probe, groups not placed) [CM 7019, tested as internally quenched peptide probe]”, for which the “Probe Cleavage (pM/s) MMP14” value in data set [4] came to 5950 pM/s. The “Probe Cleavage (pM/s) MMP2” value in data set [5] is given as 4690 pM/s. Also, the “Probe Cleavage (pM/s) MT-SP1” value in [6] is recorded as 46.1 pM/s. In addition, the “Probe Cleavage (pM/s) MMP9” value in data set [7] is reported as 6080 pM/s.
PWGLS [CM 7045]: in data set [1], the “Cleavability (%) 4h MMP2” value is 40.2%. The “Cleavability (%) 4h MMP9” value in [2] is reported as 74.5%. For the same substance, in data set [3], the “Cleavability (%) 4h MMP14” value is 15.6%. Also, in [3] (Tables 6A-6C, activatable antibody format), the “percent activation for MMP14” value is “greater than 10%”. Further, the “effect of CM on apparent masking efficiency” value in [8] was “increasing the apparent masking efficiency”.
For the substance GPWGLL [CM 7043], in data set [1], the “Cleavability (%) 4h MMP2” value is recorded as 86.0%. Further, in data set [2], the “Cleavability (%) 4h MMP9” value is on record as 96.2%. The “Cleavability (%) 4h MMP14” value in data set [3] was 77.6%. Also, in data set [9], the “in vivo stability versus control CMs” value was “higher in vivo stability”. The “In Vivo % Activation (nu/nu, day 7)” value in [9] (ip, 10 mg/kg) was 44%.
Consider “PWGL [CM 7041, also tested as internally quenched peptide probe]”, for which, in [1], the “Cleavability (%) 4h MMP2” value was found to be 15.8%. Besides, the “Cleavability (%) 4h MMP9” value in [2] came out at 12.3%. Further, the “Cleavability (%) 4h MMP14” value in data set [3] was “—”.
For “RSPWGL [tested as internally quenched peptide probe]”, the “Probe Cleavage (pM/s) MMP14” value in data set [4] is given as 9580 pM/s. Further, the “Probe Cleavage (pM/s) MMP2” value in data set [5] turned out to be 11700 pM/s. Further, in [6], the “Probe Cleavage (pM/s) MT-SP1” value is reported as 2390 pM/s. The “Probe Cleavage (pM/s) MMP9” value in data set [7] is on record as 25500 pM/s.
Consider “PMGLKS (also: internally quenched fluorophore/quencher probe, groups not placed) [CM 7018, tested as internally quenched peptide probe]”, for which the “Probe Cleavage (pM/s) MMP14” value in data set [4] is recorded as 153000 pM/s. The “Probe Cleavage (pM/s) MMP2” value in data set [5] was 119000 pM/s. Further, in data set [6], the “Probe Cleavage (pM/s) MT-SP1” value amounted to 14100 pM/s. Besides, in data set [7], the “Probe Cleavage (pM/s) MMP9” value turned out to be 133000 pM/s.
“ISSGLLSGRSDNH [CM 2001, reference compound]”: the “Cleavability (%) 4h MMP2” value in data set [1] is 50.6% and 44.1% and 52.2%. The “Cleavability (%) 4h MMP9” value in data set [2] is listed as “—”. The “Cleavability (%) 4h MMP14” value in data set [3] was 82.2% and 80.2% and 92.9%. Besides, the “Cleavability (%) 4h MT-SP1” value in [10] was found to be 30.5%.
